{"source": "the nanobody polyreactivity screen of Harvey et al. (2022)"}
{"experiment": "yeast display, Sf9 membrane polyspecificity reagent, FACS + sequencing; frameworks hold sequencing errors", "method_in_brief": "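A synthetic nanobody library was expressed on Saccharomyces cerevisiae BJ5465 by galactose induction for 36–48 hours. The library was stained for 1 hour at 4 °C with 10% biotinylated, detergent-solubilized Sf9 membrane reagent and enriched with streptavidin microbeads before FACS. Low and high (top ~1%) gates were set on anti-HA fluorescence for expression and streptavidin fluorescence for reagent binding, and each polyreactivity label reflects the gate of origin.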"}
{"sequence": "QVQLVESGGGLVQAGGSLRLSCAASGSTFVRNAMGWYRQAPGKERELVAGISTGDKTYYADSVKGRFTISRDNAKNTVYLQMNSLKPEDTAVYYCAASVGTYQTATLDYDSWGQGTQVTVSS", "polyreactivity (PSR sort gate)": "low polyreactivity"}
{"sequence": "RVQLPESGGGLVQAGGSLRLTCAASGTIFIRGDMGWYRQSPGKEREFVATIDTGSNTYYADSEKGRFTISRDNAKNAVYLQMNCLKPGDTAVYYCVVDYQLSGRLRYWGQGTQVTLSS", "polyreactivity (PSR sort gate)": "low polyreactivity"}
{"sequence": "QVQLVESGGGLVQAGGSLRLSCAASGFIFAYYAMGWYRQAPGKERELVAGNSGDGSTNYADSVKGRFTISRDNAKNTVYLQMNSLKPEDTAVYYCAAATGVGLEYDYWGQGTQVTVSS", "polyreactivity (PSR sort gate)": "low polyreactivity"}
{"sequence": "QVQLVESGGGLVQAGGSLRLSCAASGSIFKYYSMGWYRQAPGKERELVADISRSGGRTYYADSVKGRFTISRDNAKNTVYLQMNSLKPEDTAVYYCAALDTYQYFRILYGTYEYWGQGTQVTVSS", "polyreactivity (PSR sort gate)": "high polyreactivity"}
{"sequence": "QVQLVESGGGLVQAGGSLRLSCAASGRIYASYVMGWYRQAPGKERELVAAISYGGSRTYYADSVKGRFTISRDNAKNTVYLQMNSLKPEDTAVYYCAAKKYTNRGYYYWGQGTQVTVSS", "polyreactivity (PSR sort gate)": "high polyreactivity"}
{"sequence": "QVQLVESGGGLVQAGGSLRLSCAASGRIFAPYDMGWYRQAPGKERELVASITSGGSTNYTDSVKGRFTISRVNAKNTVYLQMNSLIPEDTAVYYCNTAKISEPIDPRQRVWGRTYDYWGQGTQVTVSS", "polyreactivity (PSR sort gate)": "low polyreactivity"}
{"sequence": "QVQLVESGGGLVQAGGSLRLSCASSGFIFWYYAMGWYRQAPGKERELVAAISSGDSKNYADSVKGRFTISRDNAKNTVYLQMNCLKPEDTAVYYCAARQPRTQAVYEGYYWGHGTQVTVSS", "polyreactivity (PSR sort gate)": "high polyreactivity"}
{"sequence": "QVQLVESGGGLVQAGGSLRLSCAASGSTSANYAMGWYRPAPGKERELVAAISGGARTNYADSVKGRFTISRDNAKNTVYLQMNSLKPEDTAVYYCATDAYYYNLLYLFPRYDYWGQGTQVTVSS", "polyreactivity (PSR sort gate)": "low polyreactivity"}
{"sequence": "QVHLVESGGVLVQAGGSLRLSCAASGIALLYYTMGWYRQAPGKERELVAAINSGGRTYYADSVKGRYTISRDNAKNTGYLQMNSLKPDDTAVYFCAAHGGADHMDYWGQGTQVTVSS", "polyreactivity (PSR sort gate)": "high polyreactivity"}
{"sequence": "QVQLVESGGGLVQAGGSLRLSCAASGSIFVAYAMGWYRQAPGKERELVAAITYSAGSTYYADSVKGRFTISRDNAKNTVYLQMNSLKPEDTAVYYCAADTYTYFLASYLYGQYDYWGQGTQVTVSS", "polyreactivity (PSR sort gate)": "low polyreactivity"}
{"sequence": "QDQLVESGGGLVQAGGSLRLSCAASGRISTYTMGWYRQAPGKERELVATISTDASTNYADSVKGRFTISRDNAKNTVYLQMNSLRPEDTAVYYCAAVIVNQDYDYWGQGTQVTVSS", "polyreactivity (PSR sort gate)": "low polyreactivity"}
{"sequence": "QVQLVESGGGLDQAGGSLRLSCASSGRIFRYNARGWYRQAPGKERELVAAITSGTGTNYADSVKGRFTISRDNAKNTVYLQMNRLTPEETAVYYCAVDYGYWRDSMGLGVFDYWGQGTQVTVSS", "polyreactivity (PSR sort gate)": "low polyreactivity"}
{"sequence": "QFQLVESGGGLVQAGGRLRLSCAASRSTFVLYDMGWYRQAPGKERELVAAISRSGDSTYYADSVKGRYTISRDNAKNTVYLQMNSLKPEDTAVYYCAAKRRISTGMDYWGQGTQVTVSS", "polyreactivity (PSR sort gate)": "high polyreactivity"}
{"sequence": "QVQLVESGGGLVQAGGSLRLTCAASGFIYADNAMGWDRQAPGQERELVAAISGSGGGTYYADSVKGRFTISRDNAKNTVYLQMNSLKPEDTAVYYCAKSQYHRFDYWGQGTQVTVSS", "polyreactivity (PSR sort gate)": "low polyreactivity"}
{"sequence": "QVQLVESGGGLVQAGGSLRLSCAASGRIFGRNTMGWYRQAPGKERELVAAISYSAGSTYYADSVKGRFTISRDNAKNTVYLQMNSLKPEDTAVYYCAAGYIRTTYRTNRYGYWGQGTQVTVSS", "polyreactivity (PSR sort gate)": "high polyreactivity"}
{"sequence": "QVQLVESGGRLVQAGGSLRLSCAASGSTFHDYAMGWYTPAPGKERELVAAIYNSGGSTYYADSVKGRFSISLDNAQNTVYLQMNRLKPEDSAVYYWAADVSWYWYYEYWGQGTQVTLSS", "polyreactivity (PSR sort gate)": "low polyreactivity"}
{"sequence": "QVQLVESCGRLVQAGGSLRISCAASGYTFSYYAMGWYRQAHGKERELVAAINYSGGRTYYADSVKGRFTISRDNAKNNVYLQMNSLKPEDTAVYYCSAYTRNGEYDYWGQGTQVTVSS", "polyreactivity (PSR sort gate)": "high polyreactivity"}
{"sequence": "QVQHVESAGGLVQAGGSLRLSCAASGGIFWVYAMGWSRQAPGTERELVAAISNSDTSTSYADSVKGRFTISRDNAKNTVYLQMNSLKPEDTAVYYCNAVSPSLSGDYWGQGTQVTVSS", "polyreactivity (PSR sort gate)": "low polyreactivity"}
{"sequence": "QVQLVESGGGLVQAGGSLRLSCAASGRIFHYAIGWYRQAPGKESELVAGISKRGGSTYYADSVKGRFTISRDNAKNTVYLQMNSLKPEDTAVYYCSKEHYWTLNGLTSYYWGQGSQVTVSS", "polyreactivity (PSR sort gate)": "high polyreactivity"}
{"sequence": "QVQLVESGGGLVQAGGSLRLSCAASGLIFDYYPMGWYRTAPGKERELVAAISYSGGRTYYADSVKGRFTISRDKAKNTVYLQMNSLKPEDTAVYYCNKVVLQPVIVDHDYWGQGTQVTVSS", "polyreactivity (PSR sort gate)": "low polyreactivity"}
{"sequence": "QVQLVESGGGLVQAGGSLRLSCAASGRIFRGNAMGWSRQAPGKERELVAGISVRGGRTYYADSVKGRFTISRDNAKNTVYLQMNSLKPEDTAVYYCAAVFWDDYGKYYYWGQGTQVTVSS", "polyreactivity (PSR sort gate)": "high polyreactivity"}
{"sequence": "QVQLVESGGGLVQAGVSLRLSCAASGFTIKLYAMGWYRQAPGKERELVAAISSSGGSTYYADSVKGRFTISRDNAKNTVYLQMISLKPEDTAVYYCAARTRHVHYGYWGQGTQVTVSS", "polyreactivity (PSR sort gate)": "high polyreactivity"}
{"sequence": "QVQLVESGACLVQAGGSLRLSCAASGITLVNYAMGWYRQAPGKERELVAAISASGGSTYYADSVKGRFTISRDNAKNNVYLQMNSLKPEDTAVYYCAAEEEEFIYDYWGQGTQVTVSS", "polyreactivity (PSR sort gate)": "high polyreactivity"}
{"sequence": "QVQLVESGRALVQAGGSLRLSCAASGSTSRIYALGWYRQAPWKERELVAALTRSGGSTYYADSVKGRFTISRDNAKNTVYLQMNSLKPEDTAVYYCAADYRSHSRYRYDKVDYWGQGTQVTVSS", "polyreactivity (PSR sort gate)": "high polyreactivity"}
{"sequence": "QVQLVESGGGLVQAGGSLRLSCAASGRIFVVYVMGWYRQAPGKERELVAAISYSTGSTYYADSVKGRFTISRDNAKNTVYLQMKSLKPEDTAVYYCAVAAARKSFVSRYYYWGQGTQVTVSS", "polyreactivity (PSR sort gate)": "low polyreactivity"}
{"sequence": "QVQLVESGGGLVQAGGSLRLSCAASGRIFKNYVMGWYRQAPGKERELVAAITYSGGSTRYADSVKGRFTISRDNAKNTVYLQMNSLKPEDTAVYYCAASRTYYRTYTFYYWGQGTQVTVSS", "polyreactivity (PSR sort gate)": "high polyreactivity"}
{"sequence": "QVQLVESGGGLVQAGGSLRLSCAASGFTFRYYAMGWYRQAPGKERELVASISRSGSTNYADSVKGRFTISRDNAKNTVYLQMNSLKPEDTAVYYCAAQLYSRGGYWGQGTQVTVSS", "polyreactivity (PSR sort gate)": "high polyreactivity"}
{"sequence": "QVQLEESGGGLVQAGGSLRISCAASGRTFNYNAIGWYRQAPGKERELVAAITSGGRTNYADSVKGRFTISRDNAKNTVYLQMNSLKPEDTAVYYCATEYYRYRWVGAFRYPVYYWGQGTQVTVSS", "polyreactivity (PSR sort gate)": "low polyreactivity"}
{"sequence": "QVQLVESGGGLVQAGGSLRLSCAASGRFLVLNAMGWYRQAPAKERELVADLTSVGSTYYADSVKGRFTISRDNAKNTVDLQMNSLKPEDTAVYYFAADWNTYPDYQQSYFVSYEYNYWGQGTQVTVSS", "polyreactivity (PSR sort gate)": "low polyreactivity"}
{"sequence": "QVQLVESGGGLVQAGGSLRLSCAASGFTFYYNAMGWYRQAPGKERELVAAIYSDGSTYYADSVKGRFTISRDNAKNTFYLQMNSLKAEDTAVYYCAVRKAYQYGFYYWGQGTQVTVSS", "polyreactivity (PSR sort gate)": "low polyreactivity"}
{"sequence": "QVQLVESGGGLVQAGGSLRLSCAASGNAMGWYRQAPGKERDLVAAITRRGGSTYYADSVKGRFTISRDNAKNTVYLQMNSLKPEDTAVYYCAADNPSYNLWYGYWGQGTQVTVSS", "polyreactivity (PSR sort gate)": "low polyreactivity"}
{"sequence": "QFQLVESGGGLVQAGGSLRLSCAASGRIFRYYSMGCYIQSPGKERELVAAITRGGSTNYADSVKGRFTISGDNANNNVYLQMNSLKPEDSAVYYCAVRGCYTWPTYNYWGHGTQVTVSS", "polyreactivity (PSR sort gate)": "high polyreactivity"}
{"sequence": "QVQLVESGGGLVQAGGSLRLSCAASGSIITGYAMGWYRQAPVKERELVAGINSGTSTNYADSVKGRFTISRDNAKNTVSLQMNSLKPEDTAVYYCAKTAERRHYGVYRFDYWGQGTQVTVSS", "polyreactivity (PSR sort gate)": "low polyreactivity"}
{"sequence": "QVQLVESGGGLVQAGGSLRLSCAASGSNFDDYGMGWYRQAPGKEREFVATITFGGGTYADSVKGRFTISRDNAKNTVYLQMTSLKPEDTAVYYCAKDWWTYRSSRPSDGTPARDDYWGQGTQVTVSS", "polyreactivity (PSR sort gate)": "low polyreactivity"}
{"sequence": "QVQLVESGGGLVQAGGSLRLSCAASGRTFSTYAMGGYRQAPGKERELVAVIRRDGSTSYADSVKGRFTISRDNAKNTVYLQMNSLKPEDTAVYYCAVTRRGEYYWGQGTQVTVSS", "polyreactivity (PSR sort gate)": "high polyreactivity"}
{"sequence": "QEQLQESGSGLVQAGGSLRLSCAASGNIFQDWVRGWYRQAPGKERELVAAISPGAITYDADSVKGRFTISRDNAKNTVYLQTNSLNPEDTAVYYCAAYYIVEYLQGYWGQGTRVTVSS", "polyreactivity (PSR sort gate)": "low polyreactivity"}
{"sequence": "QFQLVESGGGLVQAGGSLRLSCSSSGSIFGAYDMGWYRQAPGKERELVAAITSVGSTYYADSVKGRFTISRDNAKNTVYLQMNSLKPEDTAVYDCAKRQWRPTYRYGYWGQGTQVTVSW", "polyreactivity (PSR sort gate)": "low polyreactivity"}
{"sequence": "QVQLVESGGGLVQAGGSLRLSCAASGRTFGFNVMGWYRQAPGKERELVAAISWSGGSTYYADSVKGRFTISRDNAKNTVYLQMNSLKPEDTAVYYCNNRYVHRYGYWGQGTQVTVSS", "polyreactivity (PSR sort gate)": "low polyreactivity"}
{"sequence": "QVQLVESGGGLVQAGGSLRLSCAASGFIFTWYTMGWSRQAPGKERELVAAITSGGNTNYADSVKGRFTISRDNAKNTVYLQMNSLKPEDTSVYYCALGYLASRLKFAKYDYWGQGTQVNVSS", "polyreactivity (PSR sort gate)": "high polyreactivity"}
{"sequence": "QVQLVESGGCLVQAGGSHRLSCAASGSIFKYYTMGWYRQAPGKERELDAAITTRGTSTNYADSVKGRFTISRDNAKHTVYFQMNSLKPEDTAVYYCAARLSSLISMNYWGQGTQVTVSS", "polyreactivity (PSR sort gate)": "high polyreactivity"}
{"sequence": "QVQLVESGGGLVQAGGSLRLSCAASGIIFPYYAMGWYRQAPGKERELVAGISSSGGITYADSVKGRFTISRDNAKNTVYLQMNSLKPEDTAVYYCNAEYQWLEYDFWGQGTQVTVSS", "polyreactivity (PSR sort gate)": "low polyreactivity"}
{"sequence": "QVQLVESGGGLVQAGGSLRLSCAASGRIFGVYAMGWYRQAPGKERELVAAISSGASTYYADSVKGRFTISRDNAKNTVYLQMNSLKPEDTAVYYCAKSVKGGTGYYYWGQGTQVTVSS", "polyreactivity (PSR sort gate)": "low polyreactivity"}
{"sequence": "QVQLVESGGGLVQAGGSLRLSCAASGSTLFVNTKGWYRQAPGNERELVAAITSSGGSRYYADSVKGRFTISRDNAKNTVYLQMNSLKPQDTAVYYCAAKELGSPYDYWGQGTQVTVSS", "polyreactivity (PSR sort gate)": "high polyreactivity"}
